Source: patent publication US20200262873A1
Positions count from the first letter of the chain named. Blank lines part the entries; values can stand above or below the binder they belong to.

Target: human IgG (IgG Sepharose 6 Fast Flow, GE Healthcare Biosciences Corp.) (human)
Test: IgG Sepharose 6 Fast Flow column; bound at neutral pH, eluted at pH 3.0 then pH 2.5; peak area A/(A+B)

Antibody dissociation rate (%) at pH 3.0: 50%
B1: Recombinant type immunoglobulin κ light chain binding protein KBP0 (designed binder)
chain: KETPETPEEPKEEVTIKVNLIFADGKTQTATFKGTFEEATAEAYRYADLLAKVNGEYTADLEDGGYTINIKFAGKKETPETPEEPKEEVTIKVNLIFADGKTQTATFKGTFEEATAEAYRYADLLAKVNGEYTADLEDGGYTINIKFAGKKETPETPEEPKEEVTIKVNLIFADGKTQTATFKGTFEEATAEAYRYADLLAKVNGEYTADLEDGGYTINIKFAGKKETPETPEEPKEEVTIKVNLIFADGKTQTATFKGTFEEATAEAYRYADLLAKVNGEYTADLEDGGYTINIKFAGK

Antibody dissociation rate (%) at pH 3.0: 80%
B2: Recombinant immunoglobulin κ light chain binding protein KBP8 (designed binder)
chain: B1 chain with E38K, E113K, E188K, E263K

Antibody dissociation rate (%) at pH 3.0: 95%
B3: Recombinant immunoglobulin κ light chain binding protein KBP1 (designed binder)
chain: B1 chain with I16H, I91H, I166H, I241H

Antibody dissociation rate (%) at pH 3.0: 95%
B4: Recombinant immunoglobulin κ light chain binding protein KBP9 (designed binder)
chain: B1 chain with E42K, E117K, E192K, E267K

Antibody dissociation rate (%) at pH 3.0: 92%
B5: Recombinant immunoglobulin κ light chain binding protein KBP6 (designed binder)
chain: B1 chain with F32H, F107H, F182H, F257H

Antibody dissociation rate (%) at pH 3.0: 95%
B6: Recombinant immunoglobulin κ light chain binding protein KBP4 (designed binder)
chain: B1 chain with Q28H, Q103H, Q178H, Q253H

Antibody dissociation rate (%) at pH 3.0: 97%
B7: Recombinant immunoglobulin κ light chain binding protein KBP10 (designed binder)
chain: B1 chain with Y57H, Y132H, Y207H, Y282H

Antibody dissociation rate (%) at pH 3.0: 98%
B8: Recombinant immunoglobulin κ light chain binding protein KBP2 (designed binder)
chain: B1 chain with V18H, V93H, V168H, V243H

Antibody dissociation rate (%) at pH 3.0: 92%
B9: Recombinant immunoglobulin κ light chain binding protein KBP5 (designed binder)
chain: B1 chain with A30H, A105H, A180H, A255H

Antibody dissociation rate (%) at pH 3.0: 95%
B10: Recombinant immunoglobulin κ light chain binding protein KBP3 (designed binder)
chain: B1 chain with L20H, L95H, L170H, L245H

Antibody dissociation rate (%) at pH 3.0: 97%
B11: Recombinant immunoglobulin κ light chain binding protein KBP7 (designed binder)
chain: B1 chain with G34H, G109H, G184H, G259H

Antibody dissociation rate (%) at pH 3.0: 99%
B12: Recombinant immunoglobulin κ light chain binding protein KBP11 (designed binder)
chain: B1 chain with I70H, I145H, I220H, I295H

Antibody dissociation rate (%) at pH 3.0: 100%
B13: Recombinant immunoglobulin κ light chain binding protein KBP12 (designed binder)
chain: KETPETPEEPKEEVTIKVNLIFADGRTQTATFKHRFEEATAKAYRYADLLAKVQGEYTADLEDGGYTINIKFAGKKETPETPEEPKEEVTIKVNLIFADGRTQTATFKHRFEEATAKAYRYADLLAKVQGEYTADLEDGGYTINIKFAGKKETPETPEEPKEEVTIKVNLIFADGRTQTATFKHRFEEATAKAYRYADLLAKVQGEYTADLEDGGYTINIKFAGKKETPETPEEPKEEVTIKVNLIFADGRTQTATFKHRFEEATAKAYRYADLLAKVQGEYTADLEDGGYTINIKFAGK

Antibody dissociation rate (%) at pH 3.0: 100%
B14: Recombinant immunoglobulin κ light chain binding protein KBP13 (designed binder)
chain: B13 chain with H34G, Y57H, H109G, Y132H, H184G, Y207H, H259G, Y282H

Antibody dissociation rate (%) at pH 3.0: 100%
B15: Recombinant immunoglobulin κ light chain binding protein KBP14 (designed binder)
chain: B13 chain with F32H, H34G, F107H, H109G, F182H, H184G, F257H, H259G
